Laboratory results: US20240366775A1, “HUMAN TRANSFERRIN RECEPTOR BINDING ANTIBODY-PEPTIDE CONJUGATE” (PEPTIDREAM INC., priority 2021, published 2024)

Target: human transferrin receptor (hTfR) (human), P02786
Assay: SPR of naked peptide on hTfR; B = KD between 1 nM and 100 nM

Chain of human transferrin receptor (hTfR) (human), P02786 (P02786 89-760 limits assumed): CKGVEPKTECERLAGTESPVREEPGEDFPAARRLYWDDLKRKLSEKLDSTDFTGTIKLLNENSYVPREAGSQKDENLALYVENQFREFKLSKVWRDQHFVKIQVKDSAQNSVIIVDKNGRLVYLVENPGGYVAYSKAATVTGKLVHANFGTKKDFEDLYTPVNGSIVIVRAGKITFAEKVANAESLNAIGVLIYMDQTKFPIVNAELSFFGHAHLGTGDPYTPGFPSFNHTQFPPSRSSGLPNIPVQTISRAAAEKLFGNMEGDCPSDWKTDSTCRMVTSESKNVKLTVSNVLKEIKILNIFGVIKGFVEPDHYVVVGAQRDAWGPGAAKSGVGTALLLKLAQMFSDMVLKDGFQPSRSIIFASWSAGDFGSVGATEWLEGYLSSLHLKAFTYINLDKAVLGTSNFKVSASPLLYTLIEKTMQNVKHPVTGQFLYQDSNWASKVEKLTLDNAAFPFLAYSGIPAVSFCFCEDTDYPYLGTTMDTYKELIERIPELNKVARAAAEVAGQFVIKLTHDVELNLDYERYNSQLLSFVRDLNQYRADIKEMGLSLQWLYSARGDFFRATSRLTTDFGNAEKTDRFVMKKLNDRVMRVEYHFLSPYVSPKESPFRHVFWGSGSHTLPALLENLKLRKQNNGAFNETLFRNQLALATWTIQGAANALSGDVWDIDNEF

AVFVWNYYIISC (modifications not checked) [naked peptide (1st to 12th amino acids) of SEQ ID NO: 14, peptide 36]
KD: 1 to 100 nM
